Measurements from the supplement of paper PMC6757056.
± gives the standard deviation of the averaged measurements.

B1: library; a variant is named by its letters at N, in order (parent)
chain: GCUGUCACCGGUGCUUGGUACGUUAUAUUCAGCCGGUCUGAUGAGUCUNNNNNNAGACGAAACAGC

Key:
(6R,S)-folinic acid [1] = variants of: B1; assay: normalized RNA/DNA level without ligand (relative to sTRSVctl = 100) (log10 (% of sTRSVctl)); HEK293T overexpressing SLC46A1; higher = less ribozyme self-cleavage, higher mRNA level; conditions: without (6R,S)-folinic acid; ligand present: no
Procedure, shortened: (§1)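 Ribozyme switch library plasmids linked to reporters were introduced into HEK293T cells at 4 µg per 6-well well, with ligand, if any, added 1 h before. Total RNA was extracted with EDTA 72 h later, reverse-transcribed, amplified, barcoded and sequenced. RNA level was computed from RNA over DNA reads relative to a spiked-in non-cleaving sequence or the top sequences, then scaled and log-transformed. The top set was 25 sequences, values were ×100 and log10, and the cutoff was ≥100 DNA reads.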

(6R,S)-folinic acid [2] = variants of: B1; assay: normalized RNA/DNA level with ligand (relative to sTRSVctl = 100) (log10 (% of sTRSVctl)); HEK293T overexpressing SLC46A1; ligand concentration (+) RNA-Seq: 6 mM; higher = less ribozyme self-cleavage, higher mRNA level; conditions: with (6R,S)-folinic acid; ligand present: yes
Procedure, shortened: as §1

| Variant | normalized RNA/DNA level without ligand (log10) ((6R,S)-folinic acid [1]) | normalized RNA/DNA level with ligand (log10) ((6R,S)-folinic acid [2]) |
| --- | --- | --- |
| GCUGUCACCGGUGCUUGGUACGUUAUAUUCAGCCGGUCUGAUGAGUCUAAUAGCAGACGAAACAGC [AAUAGC] | 1.985 ± 0.013 | 2 ± 0.058 |
| GCUGUCACCGGUGCUUGGUACGUUAUAUUCAGCCGGUCUGAUGAGUCUCAGUGUAGACGAAACAGC [CAGUGU] | 2.015 ± 0.02 | 2.03 ± 0.025 |
| GCUGUCACCGGUGCUUGGUACGUUAUAUUCAGCCGGUCUGAUGAGUCUCAGUGAAGACGAAACAGC [CAGUGA] | 1.979 ± 0.011 | 2.007 ± 0.02 |
| GCUGUCACCGGUGCUUGGUACGUUAUAUUCAGCCGGUCUGAUGAGUCUCAGUGGAGACGAAACAGC [CAGUGG] | 1.91 ± 0.023 | 2.005 ± 0.0026 |
| GCUGUCACCGGUGCUUGGUACGUUAUAUUCAGCCGGUCUGAUGAGUCUCAGUGCAGACGAAACAGC [CAGUGC] | 2.011 ± 0.014 | 2 ± 0.026 |
| GCUGUCACCGGUGCUUGGUACGUUAUAUUCAGCCGGUCUGAUGAGUCUUAUAACAGACGAAACAGC [UAUAAC] | 1.98 ± 0.0056 | 2 ± 0.029 |
| GCUGUCACCGGUGCUUGGUACGUUAUAUUCAGCCGGUCUGAUGAGUCUCAGUCUAGACGAAACAGC [CAGUCU] | 2.018 ± 0.0006 | 2.03 ± 0.038 |
| GCUGUCACCGGUGCUUGGUACGUUAUAUUCAGCCGGUCUGAUGAGUCUCAUACAAGACGAAACAGC [CAUACA] | 2.001 ± 0.0091 | 1.98 ± 0.048 |
| GCUGUCACCGGUGCUUGGUACGUUAUAUUCAGCCGGUCUGAUGAGUCUCAUACCAGACGAAACAGC [CAUACC] | 2.027 ± 0.004 | 2.03 ± 0.029 |
| GCUGUCACCGGUGCUUGGUACGUUAUAUUCAGCCGGUCUGAUGAGUCUCAUACUAGACGAAACAGC [CAUACU] | 2.01 ± 0.018 | 2.03 ± 0.051 |
| GCUGUCACCGGUGCUUGGUACGUUAUAUUCAGCCGGUCUGAUGAGUCUCAUACGAGACGAAACAGC [CAUACG] | 1.987 ± 0.0082 | 2 ± 0.023 |
| GCUGUCACCGGUGCUUGGUACGUUAUAUUCAGCCGGUCUGAUGAGUCUCAUAGCAGACGAAACAGC [CAUAGC] | 1.9903 ± 0.00018 | 1.98 ± 0.047 |
| GCUGUCACCGGUGCUUGGUACGUUAUAUUCAGCCGGUCUGAUGAGUCUCAUAGGAGACGAAACAGC [CAUAGG] | 1.911 ± 0.019 | 1.998 ± 0.0083 |
| GCUGUCACCGGUGCUUGGUACGUUAUAUUCAGCCGGUCUGAUGAGUCUCAUAGAAGACGAAACAGC [CAUAGA] | 2.002 ± 0.0073 | 2.01 ± 0.033 |
| GCUGUCACCGGUGCUUGGUACGUUAUAUUCAGCCGGUCUGAUGAGUCUCAGUUGAGACGAAACAGC [CAGUUG] | 2.041 ± 0.0043 | 2.06 ± 0.013 |
| GCUGUCACCGGUGCUUGGUACGUUAUAUUCAGCCGGUCUGAUGAGUCUCAGUUUAGACGAAACAGC [CAGUUU] | 1.989 ± 0.011 | 2.03 ± 0.039 |
| GCUGUCACCGGUGCUUGGUACGUUAUAUUCAGCCGGUCUGAUGAGUCUUAGUCCAGACGAAACAGC [UAGUCC] | 2.0087 ± 0.0016 | 2.03 ± 0.057 |
| GCUGUCACCGGUGCUUGGUACGUUAUAUUCAGCCGGUCUGAUGAGUCUUAGUCGAGACGAAACAGC [UAGUCG] | 1.813 ± 0.0049 | 1.99 ± 0.043 |
| GCUGUCACCGGUGCUUGGUACGUUAUAUUCAGCCGGUCUGAUGAGUCUUAGUCUAGACGAAACAGC [UAGUCU] | 2.0118 ± 0.0019 | 2.02 ± 0.037 |
| GCUGUCACCGGUGCUUGGUACGUUAUAUUCAGCCGGUCUGAUGAGUCUAAGUCUAGACGAAACAGC [AAGUCU] | 2.066 ± 0.015 | 2.0681 ± 0.0013 |
